Measurements as given in US8846003.
No end group written: not given here.

Biological target: collagen
Assay: SPR, Biacore 2000; 1500 RU collagen amine-coupled to CM-3 chip, SILY injected at 100 µM to 1.5 µM; from on-off binding kinetics

B1: peptide … (peptide)
peptide: RRANAALKAGELYKSILYGC-NH2
Kd: 1.2 µM
